The values that follow come from patent publication US10925971B2, “Methods of treating PRLR positive breast cancer” (Regeneron Pharmaceuticals, Inc., priority 2016, dated 2021).

The subject of experiment [1] is PC3/PRLR tumors. The experiment can be described thus: PC3/PRLR xenograft, tumor size and tumor growth inhibition. It is filed as in vivo, SCID mice. The settings on record: for Final Tumor size mm^3 (mean ± SEM) / Average Tumor Growth Inhibition (%): SCID mice. A digest of the protocol:
(§1)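 MCF7/PRLR cells in mammary fat pad of female NCr nude mice, PC3/PRLR in flank of male SCID, T47D #11 in flank of female CB17 SCID, all with estrogen pellets.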

Experiment [2] relates to MCF7/PRLR tumors. Nature of the experiment: MCF7/PRLR breast cancer xenograft, tumor size and tumor growth inhibition. It is filed as in vivo, NCr nude mice. Conditions: for Average Tumor Growth Inhibition (%) / Final Tumor size mm^3 (mean ± SEM): NCr Nude mice. A digest of the protocol:
as §1

Where [3] appears, read: PC3/PRLR tumors TRIAL #1, multi-dose 15 mg/kg, Day 63.
The mark [4] stands for this setting: PC3/PRLR tumors TRIAL #2, multi-dose 5 mg/kg, Day 55.
Setting [5] is: PC3/PRLR tumors TRIAL #2, multi-dose 15 mg/kg, Day 55.
The mark [6] stands for this setting: MCF7/PRLR tumors TRIAL #1, multi-dose 5 mg/kg, Day 52.
The mark [7] stands for this setting: MCF7/PRLR tumors TRIAL #1, multi-dose 15 mg/kg, Day 52.
Where [8] appears, read: MCF7/PRLR tumors TRIAL #2, multi-dose 5 mg/kg, Day 63.
The mark [9] stands for this setting: MCF7/PRLR tumors TRIAL #2, multi-dose 15 mg/kg, Day 63.

B1: H1H6958N2-DM1: anti-PRLR antibody H1H6958N2 conjugated to the maytansinoid DM1 through an SMCC linker (conjugate)
VH: QVQLVESGGGVVQPGRSLRLSCGASGFTFRNYGMQWVRQGPGKGLEWVTLISFDGNDKYYADSVKGRFTISRDNSKNTLFLQMNSLRTEDTAVYYCARGGDFDYWGQGTLVTVSS
VL: DIQMTQSPSSLSASVGDRVTITCRASQDIRKDLGWYQQKPGKAPKRLIYAASSLHSGVPSRFSGSGSGTEFTLTISSLQPEDFATYYCLQHNSYPMYTFGQGTKLEIK
On to B1, for which the “Final Tumor size mm^3 (mean ± SEM)” value was determined as 1247 ± 171 mm^3 in experiment [1] (PC3/PRLR tumors TRIAL #1, multi-dose 5 mg/kg, Day 63); 808 ± 83 mm^3 in experiment [1] (setting [3]); 566 ± 63 mm^3 in experiment [1] (setting [4]); 230 ± 22 mm^3 in experiment [1] (setting [5]); 51 ± 33 mm^3 in experiment [2] (setting [6]); 0 ± 0 mm^3 in experiment [2] (setting [7]). The “Final Tumor size mm^3 (mean ± SEM)” value in experiment [2] (setting [8]) is 117 ± 10 mm^3; in experiment [2] (setting [9]), 0 ± 0 mm^3. Further, the “Average Tumor Growth Inhibition (%)” value came out at 46% in experiment [1] (setting [3]); 61% in experiment [1] (setting [4]); 94% in experiment [1] (setting [5]); 128% in experiment [2] (setting [6]); 133% in experiment [2] (setting [7]); 116% in experiment [2] (setting [8]). The “Average Tumor Growth Inhibition (%)” value in experiment [2] (setting [9]) came to 137%. The “PC3/PRLR tumor growth” value in experiment [1] (multi-dose, especially at 15 mg/kg) is “demonstrated inhibition of tumor growth”. In addition, the “MCF7/PRLR tumor growth” value in experiment [2] (first multi-dose trial, 5 and 15 mg/kg) is given as “potently inhibited MCF7/PRLR tumor growth”. Besides, the “tumor volume relative to vehicle control tumors” value in experiment [2] (single dose 1 mg/kg) was “significant decrease in tumor volume”.
